# “And” between values parts separate entries of the source, which are not always exact repeats. Equal entries are not always repeated.
# Experiments:
# [1] = target: GEO1900, branched-chain amino acid transaminase (BCAT) from Geoglobus acetivorans (Geoglobus acetivorans); experiment: crystal structure; GEO1900 holo form and AKG complex, space group P3(2)21, three subunits per asymmetric unit; hexamer built with symmetry mates
# [2] = target: GEO1900, branched-chain amino acid transaminase (BCAT) from Geoglobus acetivorans (Geoglobus acetivorans); experiment: SEC; GEO1900 on Superdex 200 in 30 mM Tris-HCl, pH 8.0, 300 mM NaCl; native molecular weight by gel filtration
substance,measurement,setting,value
"GEO1900, branched-chain amino acid transaminase (BCAT) from Geoglobus acetivorans (enzyme)",stoichiometry N,[1],6
same,stoichiometry N,[2],2 and 4

# From PMC6353796, “Thermostable Branched-Chain Amino Acid Transaminases From the Archaea Geoglobus acetivorans and Archaeoglobus fulgidus: Biochemical and Structural Characterization” (Frontiers in Bioengineering and Biotechnology, 2019)
